Results published in paper PMC2943039.

Target: PCNA (Proliferating Cell Nuclear Antigen) (UniProt P12004)
Experiment: PCNA-bead pull-down, anti-FEN1 blot
Conditions: reference: wild type, kinase-treated; sites S187

Substance: FEN1 (flap endonuclease 1) (from UniProt P39748) S187A, kinase-treated
- binding against the reference: stronger
